Paper PMC3145109

Target: T1, KmtR (UniProt O53838 1-130)
T1 sequence: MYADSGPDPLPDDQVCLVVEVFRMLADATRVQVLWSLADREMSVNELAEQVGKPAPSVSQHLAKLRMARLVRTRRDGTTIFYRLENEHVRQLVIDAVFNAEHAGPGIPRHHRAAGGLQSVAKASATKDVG
Test: fluorescence anisotropy

B1: PRv0286 32-mer (Rv0826 promoter) (dsDNA)
DNA 1: TCCATAGTGACAACGTGCGTAGTCAGAATTCG
DNA 2: CGAATTCTGACTACGCACGTTGTCACTATGGA
- binding result: no binding
